Results published in US20080280313.

T1: CKI phosphopeptide substrate KRRRALS(p)VASLPGL (New England Biolabs)
T1 chain: KRRRALSVASLPGL

T2: CKI substrate DDDEESITRR (Promega)
T2 chain: DDDEESITRR

T3: CKI substrate peptide RRKDLHDDEEDEAMSITA (Calbiochem)
T3 chain: RRKDLHDDEEDEAMSITA

T4: CKII substrate RRADDSDDDDD (Calbiochem)
T4 chain: RRADDSDDDDD

T5: CKII substrate RRREEETEEE (New England Biolabs)
T5 chain: RRREEETEEE

T6: CaM kinase II substrate (281-291) MHKNETVECLK (Calbiochem)
T6 chain: MHKNETVECLK

T7: Syntide-2 substrate PLARTLSVAGLPGKK (Calbiochem)
T7 chain: PLARTLSVAGLPGKK

T8: kemptide LRRASLG (Promega)
T8 chain: LRRASLG

T9: partially dephosphorylated α-casein (Sigma), P02662
T9 chain: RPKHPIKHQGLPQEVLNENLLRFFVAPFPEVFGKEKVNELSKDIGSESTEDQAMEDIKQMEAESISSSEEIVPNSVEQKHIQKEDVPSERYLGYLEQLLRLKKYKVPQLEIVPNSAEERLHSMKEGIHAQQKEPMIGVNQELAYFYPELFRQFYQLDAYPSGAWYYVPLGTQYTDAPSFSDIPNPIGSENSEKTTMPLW

T10: β-casein (Sigma), P02666
T10 chain: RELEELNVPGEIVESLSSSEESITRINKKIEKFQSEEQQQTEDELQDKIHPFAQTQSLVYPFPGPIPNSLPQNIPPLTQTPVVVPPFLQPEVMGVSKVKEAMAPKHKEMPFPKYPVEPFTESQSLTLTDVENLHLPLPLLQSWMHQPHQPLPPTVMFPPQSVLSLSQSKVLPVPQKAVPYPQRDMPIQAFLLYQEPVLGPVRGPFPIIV

B1: FLAGTgCKIβ, N-terminal FLAG epitope tagged Toxoplasma gondii casein kinase I beta (protein)
chain: AHHQDTRNHTGVGPSSSIPLKDLKIAGVWKIGRKIGSGSFGDIYKGLNSQTGQEVALKVESTKAKHPQLLYEYKLLKHLQGGTGIAQVFCCETAGDHNIMAMELLGPSLEDVFNLCNRTFSLKTILLLADQFLQRVEYIHSKNFIHRDIKPDNFLLGGAGNQNTIYVIDFGLAKKFRDPKTHQHIPYRENKNLTGTARYASISAHLGSEQSRRDDLEAVGYVLMYFCRGGTLPWQGIKANTKQEKYHKIMEKKMSTPVEVLCKGYPSEFATYLHYCRSLRFEDRPDYAYLKRLFRDLYIKEGYDDSDREFDWTVKLSSRSLGPPSSRAQHVLLSQDTRTRGKRETDRPVAARSGDRERGIHFSNGNVGNPSMATNPGGLSVMVHERTSLVDQGDRGSRETSTRKEDAKDGRWPGGRFSCLPLLCRRSPTKA
B2: native EtCKIα, partially purified from Eimeria tenella unsporulated oocysts (protein)
chain: MDVRVGGKYRLGRKIGSGSFGDIYLGTNISTGDEVAIKLESVRSRHPQLIYESKLYKILTGGIGIPTLYWYGIEGDYNVMIIELLGPSLEDLFSICNRKLSLKTVLMLADQMLNRIEFVHSRHFIHRDIKPDNFLIGRGKKMSIVFAIDFGLAKKYRDPRTQSHIPYREGKNLTGTARYASVNTHLGIEQSRRDDLEALGYVLMYFNRGSLPWQGLKATTKKDKYDKIMEKKMSTPIEVLCKQFPFEFITYLNYCRSLRFEDRPDYSYLRRLFKDLFFREGYQYDFIFDWTFLHAERERERQRRSMVNQGAESGNQWRRDASGRDPLGRLPQLEP

Legend:
[1] = biological target: T1, CKI phosphopeptide substrate …
[2] = biological target: T2, CKI substrate DDDEESITRR (Promega)
[3] = biological target: T3, CKI substrate peptide …
[4] = biological target: T4, CKII substrate RRADDSDDDDD (Calbiochem)
[5] = biological target: T5, CKII substrate RRREEETEEE (New England …)
[6] = biological target: T6, CaM kinase II substrate (281-291) …
[7] = biological target: T7, Syntide-2 substrate PLARTLSVAGLPGKK …
[8] = biological target: T8, kemptide LRRASLG (Promega)
[9] = biological target: T9, partially dephosphorylated α-casein …
[10] = biological target: T10, β-casein (Sigma), P02666

| Protein | Km(app) [1] | Vmax(app) (nmole min^-1 mg^-1) [1] | kinase activity with peptide substrate [2] | Km(app) [3] | Vmax(app) (nmole min^-1 mg^-1) [3] | kinase activity with peptide substrate [4] | kinase activity with peptide substrate [5] | kinase activity with peptide substrate [6] | kinase activity with peptide substrate [7] | kinase activity with peptide substrate [8] | Km(app) [9] | Vmax(app) (nmole min^-1 mg^-1) [9] | Km(app) [10] | Vmax(app) (nmole min^-1 mg^-1) [10] | Vmax relative to the α-casein substrate [1] |
| --- | --- | --- | --- | --- | --- | --- | --- | --- | --- | --- | --- | --- | --- | --- | --- |
| B1 | 79 µM | 37 | failed to show concentration dependent kinase activity | 15 µM | 8 | failed to show concentration dependent kinase activity | failed to show concentration dependent kinase activity | failed to show concentration dependent kinase activity | failed to show concentration dependent kinase activity | failed to show concentration dependent kinase activity | 5 µM | 12 | 12 µM | 16 | – |
| B2 | – | – | – | – | – | – | – | – | – | – | – | – | – | – | the phosphopeptide yielded a much higher Vmax (2.5× greater activity) than the α-casein substrate |
